# From article PMC5175368
# Substitutions are numbered along the chain they refer to.
# B1: PA1StdG (structured_DNA)
# DNA: AGAGAGCGTCGTGTGGACCATGGGGTGAGTGGGTAGGTGTCCTGAGGAGGTGCGCAAGT
# B2: PA1StdA (structured_DNA)
# DNA: B1 DNA with G24A, G32A
# Molecular target: PA63 (cleaved protective antigen) (Bacillus anthracis, UniProt P13423 197-764)
# Assay: filter binding
# PA63 (cleaved protective antigen), sequence (P13423 197-764): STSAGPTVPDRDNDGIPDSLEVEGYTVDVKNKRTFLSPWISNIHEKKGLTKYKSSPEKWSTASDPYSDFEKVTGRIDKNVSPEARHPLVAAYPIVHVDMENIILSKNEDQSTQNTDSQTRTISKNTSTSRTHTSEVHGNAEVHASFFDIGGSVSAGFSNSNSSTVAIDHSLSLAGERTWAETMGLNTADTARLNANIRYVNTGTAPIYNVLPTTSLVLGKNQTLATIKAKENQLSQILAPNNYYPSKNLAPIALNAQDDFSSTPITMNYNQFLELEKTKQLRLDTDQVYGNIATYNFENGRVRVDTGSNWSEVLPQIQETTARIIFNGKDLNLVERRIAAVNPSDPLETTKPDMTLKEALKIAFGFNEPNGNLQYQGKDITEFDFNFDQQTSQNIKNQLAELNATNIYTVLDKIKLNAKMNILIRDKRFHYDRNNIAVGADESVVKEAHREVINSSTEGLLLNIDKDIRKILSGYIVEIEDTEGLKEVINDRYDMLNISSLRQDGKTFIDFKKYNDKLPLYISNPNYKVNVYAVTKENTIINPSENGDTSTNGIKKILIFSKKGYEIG
row,Binder,binding result
1,B1,no binding
2,B2,no binding
3,CGTGTGGACCATGGGGTGAGTGGGTAGGTGTCCTGAGGAGGT (structured_DNA) [PA1T4StdG],no binding
4,CGTGTGGACCATGGAGTGAGTGAGTAGGTGTCCTGAGGAGGT (structured_DNA) [PA1T4StdA],no binding
